Measurements published in the supplement of paper PMC7125110.
± gives the standard error. For some of these results: Fewer inactive variants are shown than the library holds.

B1: glmS ribozyme (parent)
chain: AUAAAAGCGCCAGAACUACAGAAAUGUAGUUGACGAGGAGGAGGUUUAUCGAAUUUUCGGCGGAUGCCUCCAAA

How the values were obtained:
Conditions in all cases: with glucosamine-6-phosphate
glucosamine-6-phosphate [1] = variants of: B1; test: kcat; higher = faster cleavage; RNA array
Outline: (§1)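 Barcoded ribozyme variants on sequenced MiSeq chips were transcribed in situ by E. coli RNA polymerase and followed at 37 °C through a hybridised Cy3 probe. Glucosamine-6-phosphate at 40 μM to 10 mM in HEPES/KCl/Mg(OAc)2 buffer was flowed in, and tiles were imaged over ~14 h. Signals were normalised to baseline and to non-cleaving reference variants, and per-tile medians were fit to one- or two-exponential decays to give kobs. Weighted Michaelis–Menten fits across concentrations gave kcat and KM.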

glucosamine-6-phosphate [2] = variants of: B1; test: self-cleavage kobs at 640 uM GlcN6P; higher = faster cleavage; RNA array
Outline: as §1

glucosamine-6-phosphate [3] = variants of: B1; test: self-cleavage kobs at 2500 uM GlcN6P; higher = faster cleavage; RNA array
Outline: as §1

glucosamine-6-phosphate [4] = variants of: B1; test: self-cleavage kobs at 10000 uM GlcN6P; higher = faster cleavage; RNA array
Outline: as §1

glucosamine-6-phosphate [5] = variants of: B1; test: self-cleavage kobs at 160 uM GlcN6P; higher = faster cleavage; RNA array
Outline: as §1

glucosamine-6-phosphate [6] = variants of: B1; test: self-cleavage kobs at 40 uM GlcN6P; higher = faster cleavage; RNA array
Outline: as §1

glucosamine-6-phosphate [7] = variants of: B1; test: KM; higher = weaker cofactor use; RNA array
Outline: as §1

With G13C U31G C70U the kcat (glucosamine-6-phosphate [1]) was 0.000159 ± 3.6e-05 s⁻¹, the “self-cleavage kobs at 640 uM GlcN6P” value (glucosamine-6-phosphate [2]) was 4.2e-05 ± 1.9e-05 s⁻¹ and the “self-cleavage kobs at 2500 uM GlcN6P” value (glucosamine-6-phosphate [3]) was 0.000148 ± 3.9e-05 s⁻¹. The “self-cleavage kobs at 10000 uM GlcN6P” value (glucosamine-6-phosphate [4]) was 0.000131 ± 2.7e-05 s⁻¹.

C10U U47G was tested, and the kcat (glucosamine-6-phosphate [1]) was under 1e-05 s⁻¹ and the “self-cleavage kobs at 160 uM GlcN6P” value (glucosamine-6-phosphate [5]) was under 1e-05 s⁻¹.

C61A C70A was tested, and the kcat (glucosamine-6-phosphate [1]) was under 1e-05 s⁻¹, the “self-cleavage kobs at 40 uM GlcN6P” value (glucosamine-6-phosphate [6]) was under 1e-05 s⁻¹ and the “self-cleavage kobs at 160 uM GlcN6P” value (glucosamine-6-phosphate [5]) was under 1e-05 s⁻¹.

In the case of C11A A15U, the kcat (glucosamine-6-phosphate [1]) is reported as 6.57e-05 ± 4.8e-06 s⁻¹, the KM (glucosamine-6-phosphate [7]) is reported as 1510 ± 380 µM and the “self-cleavage kobs at 2500 uM GlcN6P” value (glucosamine-6-phosphate [3]) is reported as 3.75e-05 ± 1.7e-05 s⁻¹. For the same variant, the “self-cleavage kobs at 10000 uM GlcN6P” value (glucosamine-6-phosphate [4]) was 5.85e-05 ± 1.7e-05 s⁻¹.

G38U U55G was tested, and the kcat (glucosamine-6-phosphate [1]) was under 1e-05 s⁻¹ and the “self-cleavage kobs at 160 uM GlcN6P” value (glucosamine-6-phosphate [5]) was under 1e-05 s⁻¹.

For C11G A39U, the kcat (glucosamine-6-phosphate [1]) was under 1e-05 s⁻¹, the “self-cleavage kobs at 160 uM GlcN6P” value (glucosamine-6-phosphate [5]) was under 1e-05 s⁻¹ and the “self-cleavage kobs at 2500 uM GlcN6P” value (glucosamine-6-phosphate [3]) was under 1e-05 s⁻¹.

In the case of G32U G41A, the kcat (glucosamine-6-phosphate [1]) is reported as 0.000221 ± 1.2e-05 s⁻¹, the KM (glucosamine-6-phosphate [7]) is reported as 4720 ± 590 µM and the “self-cleavage kobs at 640 uM GlcN6P” value (glucosamine-6-phosphate [2]) is reported as 2.98e-05 ± 1.1e-05 s⁻¹. For the same variant, the “self-cleavage kobs at 2500 uM GlcN6P” value (glucosamine-6-phosphate [3]) was 7.3e-05 ± 1.5e-05 s⁻¹ and the “self-cleavage kobs at 10000 uM GlcN6P” value (glucosamine-6-phosphate [4]) was 0.00015 ± 1.4e-05 s⁻¹.

For U30C U47A, the kcat (glucosamine-6-phosphate [1]) was 0.000176 ± 9.3e-06 s⁻¹, the KM (glucosamine-6-phosphate [7]) was 1400 ± 190 µM and the “self-cleavage kobs at 640 uM GlcN6P” value (glucosamine-6-phosphate [2]) was 5.72e-05 ± 8.2e-06 s⁻¹. The “self-cleavage kobs at 2500 uM GlcN6P” value (glucosamine-6-phosphate [3]) was 0.000106 ± 1.2e-05 s⁻¹ and the “self-cleavage kobs at 10000 uM GlcN6P” value (glucosamine-6-phosphate [4]) was 0.00016 ± 1.6e-05 s⁻¹.

G37C A52G was tested, and the kcat (glucosamine-6-phosphate [1]) was under 1e-05 s⁻¹ and the “self-cleavage kobs at 40 uM GlcN6P” value (glucosamine-6-phosphate [6]) was under 1e-05 s⁻¹.

With A14U C50A U54G G62A C68U the kcat (glucosamine-6-phosphate [1]) was 3.85e-05 ± 1.7e-05 s⁻¹ and the “self-cleavage kobs at 640 uM GlcN6P” value (glucosamine-6-phosphate [2]) was 7.62e-05 ± 2.5e-05 s⁻¹.

In the case of C11U U31C A52U, the kcat (glucosamine-6-phosphate [1]) is reported as under 1e-05 s⁻¹.

For U30C G60U, the kcat (glucosamine-6-phosphate [1]) was under 1e-05 s⁻¹, the “self-cleavage kobs at 40 uM GlcN6P” value (glucosamine-6-phosphate [6]) was under 1e-05 s⁻¹ and the “self-cleavage kobs at 640 uM GlcN6P” value (glucosamine-6-phosphate [2]) was under 1e-05 s⁻¹. The “self-cleavage kobs at 10000 uM GlcN6P” value (glucosamine-6-phosphate [4]) was under 1e-05 s⁻¹.

For U55A C70G, the kcat (glucosamine-6-phosphate [1]) was 0.000118 ± 1.5e-05 s⁻¹, the “self-cleavage kobs at 40 uM GlcN6P” value (glucosamine-6-phosphate [6]) was 3.74e-05 ± 7.5e-06 s⁻¹ and the “self-cleavage kobs at 160 uM GlcN6P” value (glucosamine-6-phosphate [5]) was 0.000102 ± 1.2e-05 s⁻¹. For the same variant, the “self-cleavage kobs at 640 uM GlcN6P” value (glucosamine-6-phosphate [2]) was 0.000148 ± 1.6e-05 s⁻¹, the “self-cleavage kobs at 2500 uM GlcN6P” value (glucosamine-6-phosphate [3]) was 0.000117 ± 1.2e-05 s⁻¹ and the “self-cleavage kobs at 10000 uM GlcN6P” value (glucosamine-6-phosphate [4]) was 0.000101 ± 9.9e-06 s⁻¹.

For G38U C58U U69G, the kcat (glucosamine-6-phosphate [1]) was 0.000168 ± 1.3e-05 s⁻¹, the “self-cleavage kobs at 40 uM GlcN6P” value (glucosamine-6-phosphate [6]) was 0.000148 ± 4.2e-05 s⁻¹ and the “self-cleavage kobs at 160 uM GlcN6P” value (glucosamine-6-phosphate [5]) was 0.000207 ± 5.2e-05 s⁻¹. For the same variant, the “self-cleavage kobs at 640 uM GlcN6P” value (glucosamine-6-phosphate [2]) was 0.000157 ± 2.8e-05 s⁻¹, the “self-cleavage kobs at 2500 uM GlcN6P” value (glucosamine-6-phosphate [3]) was 0.000189 ± 6.3e-05 s⁻¹ and the “self-cleavage kobs at 10000 uM GlcN6P” value (glucosamine-6-phosphate [4]) was 0.000156 ± 4.9e-05 s⁻¹.

A64G C70G was tested, and the kcat (glucosamine-6-phosphate [1]) was 5.51e-05 ± 2.1e-06 s⁻¹, the KM (glucosamine-6-phosphate [7]) was 224 ± 79 µM and the “self-cleavage kobs at 40 uM GlcN6P” value (glucosamine-6-phosphate [6]) was under 1e-05 s⁻¹. The “self-cleavage kobs at 640 uM GlcN6P” value (glucosamine-6-phosphate [2]) was 4.33e-05 ± 1.6e-05 s⁻¹ and the “self-cleavage kobs at 10000 uM GlcN6P” value (glucosamine-6-phosphate [4]) was 5.41e-05 ± 8.6e-06 s⁻¹.

In the case of U46G C50A, the kcat (glucosamine-6-phosphate [1]) is reported as under 1e-05 s⁻¹ and the “self-cleavage kobs at 160 uM GlcN6P” value (glucosamine-6-phosphate [5]) is reported as under 1e-05 s⁻¹.

In the case of U57C C70U, the kcat (glucosamine-6-phosphate [1]) is reported as 0.00016 ± 1.8e-05 s⁻¹, the KM (glucosamine-6-phosphate [7]) is reported as 741 ± 210 µM and the “self-cleavage kobs at 160 uM GlcN6P” value (glucosamine-6-phosphate [5]) is reported as 2.63e-05 ± 8.9e-06 s⁻¹. The “self-cleavage kobs at 640 uM GlcN6P” value (glucosamine-6-phosphate [2]) was 7.23e-05 ± 9.1e-06 s⁻¹, the “self-cleavage kobs at 2500 uM GlcN6P” value (glucosamine-6-phosphate [3]) was 0.000137 ± 1.3e-05 s⁻¹ and the “self-cleavage kobs at 10000 uM GlcN6P” value (glucosamine-6-phosphate [4]) was 0.000124 ± 2.4e-05 s⁻¹.

Variant C11U C34U G63U C70G has a kcat (glucosamine-6-phosphate [1]) of 2.22e-05 ± 4.3e-06 s⁻¹.

In the case of G37A A39U, the kcat (glucosamine-6-phosphate [1]) is reported as 0.00167 ± 0.00028 s⁻¹, the KM (glucosamine-6-phosphate [7]) is reported as 3280 ± 870 µM and the “self-cleavage kobs at 160 uM GlcN6P” value (glucosamine-6-phosphate [5]) is reported as 6.13e-05 ± 1.5e-05 s⁻¹. The “self-cleavage kobs at 640 uM GlcN6P” value (glucosamine-6-phosphate [2]) was 0.00028 ± 4e-05 s⁻¹, the “self-cleavage kobs at 2500 uM GlcN6P” value (glucosamine-6-phosphate [3]) was 0.000838 ± 9.2e-05 s⁻¹ and the “self-cleavage kobs at 10000 uM GlcN6P” value (glucosamine-6-phosphate [4]) was 0.00116 ± 0.00015 s⁻¹.

With G37A A52U the kcat (glucosamine-6-phosphate [1]) was 5.16e-05 ± 5.1e-06 s⁻¹, the KM (glucosamine-6-phosphate [7]) was 6790 ± 1600 µM and the “self-cleavage kobs at 160 uM GlcN6P” value (glucosamine-6-phosphate [5]) was under 1e-05 s⁻¹. The “self-cleavage kobs at 10000 uM GlcN6P” value (glucosamine-6-phosphate [4]) was 3.07e-05 ± 8.4e-06 s⁻¹.
